Assay results taken from PMC3684052.

What was measured:
[1] = target: GST-KRIT1 (residues 170–198), wild type (human) (UniProt O00522); experiment: SPR
[2] = target: GST-integrin β1 fusion protein (residues 752 to 798), wild type (UniProt P05556); experiment: SPR
Sequence of GST-integrin β1 fusion protein (residues 752 to 798), wild type (P05556 752-798): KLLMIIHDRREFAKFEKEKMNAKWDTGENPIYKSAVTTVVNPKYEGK

Sequence of GST-KRIT1 (residues 170–198), wild type (human) (O00522 170-198): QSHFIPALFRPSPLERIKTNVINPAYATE

Substance: ICAP1 (analyte of the surface plasmon resonance) (from UniProt O14713 1-200) (domain or fragment)
- Kd [1]: 1.24 µM
- Kd [2]: 5 µM
